{
  "source": "paper PMC11321683",
  "about": "“A Functional InDel in the WRKY10 Promoter Controls the Degree of Flesh Red Pigmentation in Apple”",
  "data": [
    {"target": "MdWRKY10 (Malus domestica, UniProt D9ZJE9 1-528)", "sequence (D9ZJE9 entry or part of it)": "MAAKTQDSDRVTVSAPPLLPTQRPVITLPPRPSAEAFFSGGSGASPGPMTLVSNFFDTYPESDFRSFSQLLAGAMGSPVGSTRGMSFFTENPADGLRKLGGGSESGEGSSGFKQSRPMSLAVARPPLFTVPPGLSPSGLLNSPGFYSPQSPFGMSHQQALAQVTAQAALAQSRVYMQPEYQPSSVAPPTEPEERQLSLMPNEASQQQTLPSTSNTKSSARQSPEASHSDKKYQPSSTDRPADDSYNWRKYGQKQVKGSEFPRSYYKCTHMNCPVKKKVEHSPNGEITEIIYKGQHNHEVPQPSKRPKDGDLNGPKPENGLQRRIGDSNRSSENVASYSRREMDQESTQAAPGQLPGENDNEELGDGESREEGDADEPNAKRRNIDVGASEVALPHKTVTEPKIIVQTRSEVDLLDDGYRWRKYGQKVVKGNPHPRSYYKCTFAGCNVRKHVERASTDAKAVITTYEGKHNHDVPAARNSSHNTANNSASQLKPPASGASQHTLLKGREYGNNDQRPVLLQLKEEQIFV", "test": "EMSA; EMSA with LightShift chemiluminescent kit (Thermo) per manufacturer; buffer, pH and temperature not stated", "conditions": "protein: recombinant; tags: His (pET-32a(+) vector); label: 3' biotin; blunt", "values": [
      {"binder": "proMdMYB10 W2 (dsDNA) DNA 1: TGATAAAGGTATCTTATGGTGGTCAAAGATGTGTGTTGTAACTAGT DNA 2: ACTAGTTACAACACACATCTTTGACCACCATAAGATACCTTTATCA", "binding result": "binds"},
      {"binder": "proMdMYB10 W2 mutant (dsDNA) DNA 1: TGATAAAGGTATCTTATGGTGGGAAAAGATGTGTGTTGTAACTAGT DNA 2: ACTAGTTACAACACACATCTTTTCCCACCATAAGATACCTTTATCA", "binding result": "no binding"},
      {"binder": "proMdUFGT W5 (dsDNA) DNA 1: TTTTTTGCAACAAATTACCTTTGACTAACAAAACAAGGATATTTCT DNA 2: AGAAATATCCTTGTTTTGTTAGTCAAAGGTAATTTGTTGCAAAAAA", "binding result": "binds"},
      {"binder": "proMdUFGT W5 mutant (dsDNA) DNA 1: TTTTTTGCAACAAATTACCTTTTCCTAACAAAACAAGGATATTTCT DNA 2: AGAAATATCCTTGTTTTGTTAGGAAAAGGTAATTTGTTGCAAAAAA", "binding result": "no binding"},
      {"binder": "proMdF3'5'H W2 (dsDNA) DNA 1: TAAATAGTATCTAACGAAAATTGACCGCACGATATACAATGAACGA DNA 2: TCGTTCATTGTATATCGTGCGGTCAATTTTCGTTAGATACTATTTA", "binding result": "binds"},
      {"binder": "proMdF3'5'H W2 mutant (dsDNA) DNA 1: TAAATAGTATCTAACGAAAATTTCCCGCACGATATACAATGAACGA DNA 2: TCGTTCATTGTATATCGTGCGGGAAATTTTCGTTAGATACTATTTA", "binding result": "no binding"},
      {"binder": "proMdF3'5'H W3 (dsDNA) DNA 1: TCACTCATATAGGTAAACTTTGTCAAGGATGTTCATGTAATTATAA DNA 2: TTATAATTACATGAACATCCTTGACAAAGTTTACCTATATGAGTGA", "binding result": "binds"},
      {"binder": "proMdF3'5'H W3 mutant (dsDNA) DNA 1: TCACTCATATAGGTAAACTTTGGAAAGGATGTTCATGTAATTATAA DNA 2: TTATAATTACATGAACATCCTTTCCAAAGTTTACCTATATGAGTGA", "binding result": "no binding"}
    ]}
  ]
}
